Consider five molecules from US20130203167A1 (SYRACUSE UNIVERSITY, published 2013).

The assay addresses full-length WDR5 (UniProt P61964 2-334). The experiment in a line: method not stated; ITC with full-length WDR5 by the Methods.

Turning to Ac-VNPTGCARSEPKMS-NH2 [Win motif peptide VNPTGCARSEPKMS (SEQ ID NO. 30)], the affinity, expressed as Kd, was 47 nM.

Consider Ac-EHQTGSARSEGYYP-NH2 [Win motif peptide EHQTGSARSEGYYP (SEQ ID NO. 32)], for which binding was characterised by a dissociation constant (Kd) of 415 nM.

Consider Ac-INPTGCARSEPKIL-NH2 [Win motif peptide INPTGCARSEPKIL (SEQ ID NO. 29)], for which the equilibrium dissociation constant (Kd) (in general, the concentration at which binding is half-saturated) was determined as 78 nM.

Ac-EHVTGCARSEGFYT-NH2 [Win motif peptide EHVTGCARSEGFYT (SEQ ID NO. 33)] gave a Kd of 116 nM.

Consider Ac-LNPHGAARAEVYLR-NH2 [Win motif peptide LNPHGAARAEVYLR (SEQ ID NO. 31)], for which binding was characterised by a dissociation constant (Kd) of 52 nM.
